Results: patent publication US20130005646A1 (Novo Nordisk, published 2013)
Starred links: 1 amine or outer side, 2 acyl side, 3 side chain; linkers in the order of their positions; H or OH if unused. Positions of bridges follow the written chain, without caps; N, C: chain ends. Non-standard residues stand in square brackets, D forms with d. *: point of attachment. C20 diacid = O=C(O)CCCCCCCCCCCCCCCCCCC(=O)*; 19‑carboxyheptadecanoyl = not defined here; C18 diacid = O=C(O)CCCCCCCCCCCCCCCCC(=O)*; γGlu = O=C(O)[C@H](CCC(=O)[*:2])N[*:1]; AEEA = NCCOCCOCC(=O)O

B1: N-alpha-[2-(2-{2-[2-(2-{2-[(S)-4-Carboxy-4-(19-carboxyheptadecanoylamino)butyrylamino]ethoxy}ethoxy)acetylamino]ethoxy}ethoxy)acetyl]-D-Arg-D-Arg-[Glu14,His17,A … (peptide)
peptide: {19‑carboxyheptadecanoyl-γGlu-AEEA-AEEA}-[dR][dR]KCNTATCATQRLAEFLHRSSANFGPILPPTNVGSSTY-NH2
modifications: disulfide 4-9; reading uncertain; also: printed as N-alpha-[2-(2-{2-[2-(2-{2-[(S)-4-Carboxy-4-(19-carboxyheptadecanoylamino)butyrylamino]ethoxy}ethoxy)acetylamino]ethoxy}ethoxy)acetyl]-D-Arg-D-Arg-[Glu14,His17,Arg18,Ala21,Ser35]-pramlintide
B2: N-alpha-[(S)-4-Carboxy-4-(17-carboxyheptadecanoylamino)butyryl]-[His1,Glu14,His17]-pramlintide (peptide)
peptide: {C18 diacid-γGlu}-HCNTATCATQRLAEFLHHSSNNFGPILPPTNVGSNTY-NH2
modifications: disulfide 2-7; not fully specified; printed as N-alpha-[(S)-4-Carboxy-4-(17-carboxyheptadecanoylamino)butyryl]-[His1,Glu14,His17]-pramlintide
B3: N-alpha-[(S)-4-Carboxy-4-(17-carboxyheptadecanoylamino)butyryl]-Glu-[Glu14,His17]-pramlintide (peptide)
peptide: {C18 diacid-γGlu}-EKCNTATCATQRLAEFLHHSSNNFGPILPPTNVGSNTY-NH2
modifications: disulfide 3-8
SMILES: CC[C@H](C)[C@H](NC(=O)[C@@H]1CCCN1C(=O)CNC(=O)[C@H](Cc1ccccc1)NC(=O)[C@H](CC(N)=O)NC(=O)[C@H](CC(N)=O)NC(=O)[C@H](CO)NC(=O)[C@H](CO)NC(=O)[C@H](Cc1c[nH]cn1)NC(=O)[C@H](Cc1c[nH]cn1)NC(=O)[C@H](CC(C)C)NC(=O)[C@H](Cc1ccccc1)NC(=O)[C@H](CCC(=O)O)NC(=O)[C@H](C)NC(=O)[C@H](CC(C)C)NC(=O)[C@H](CCCNC(=N)N)NC(=O)[C@H](CCC(N)=O)NC(=O)[C@@H](NC(=O)[C@H](C)NC(=O)[C@@H]1CSSC[C@H](NC(=O)[C@H](CCCCN)NC(=O)[C@H](CCC(=O)O)NC(=O)CC[C@H](NC(=O)CCCCCCCCCCCCCCCCC(=O)O)C(=O)O)C(=O)N[C@@H](CC(N)=O)C(=O)N[C@@H]([C@@H](C)O)C(=O)N[C@@H](C)C(=O)N[C@@H]([C@@H](C)O)C(=O)N1)[C@@H](C)O)C(=O)N[C@@H](CC(C)C)C(=O)N1CCC[C@H]1C(=O)N1CCC[C@H]1C(=O)N[C@H](C(=O)N[C@@H](CC(N)=O)C(=O)N[C@H](C(=O)NCC(=O)N[C@@H](CO)C(=O)N[C@@H](CC(N)=O)C(=O)N[C@H](C(=O)N[C@@H](Cc1ccc(O)cc1)C(N)=O)[C@@H](C)O)C(C)C)[C@@H](C)O
B4: N-alpha-[(S)-4-Carboxy-4-(19-carboxynonadecanoylamino)butyryl]-His-His-[His1,Glu14,His17,His35]-pramlintide (peptide)
peptide: {C20 diacid-γGlu}-HHHCNTATCATQRLAEFLHHSSNNFGPILPPTNVGSHTY-NH2
modifications: disulfide 4-9
SMILES: CC[C@H](C)[C@H](NC(=O)[C@@H]1CCCN1C(=O)CNC(=O)[C@H](Cc1ccccc1)NC(=O)[C@H](CC(N)=O)NC(=O)[C@H](CC(N)=O)NC(=O)[C@H](CO)NC(=O)[C@H](CO)NC(=O)[C@H](Cc1c[nH]cn1)NC(=O)[C@H](Cc1c[nH]cn1)NC(=O)[C@H](CC(C)C)NC(=O)[C@H](Cc1ccccc1)NC(=O)[C@H](CCC(=O)O)NC(=O)[C@H](C)NC(=O)[C@H](CC(C)C)NC(=O)[C@H](CCCNC(=N)N)NC(=O)[C@H](CCC(N)=O)NC(=O)[C@@H](NC(=O)[C@H](C)NC(=O)[C@@H]1CSSC[C@H](NC(=O)[C@H](Cc2c[nH]cn2)NC(=O)[C@H](Cc2c[nH]cn2)NC(=O)[C@H](Cc2c[nH]cn2)NC(=O)CC[C@H](NC(=O)CCCCCCCCCCCCCCCCCCC(=O)O)C(=O)O)C(=O)N[C@@H](CC(N)=O)C(=O)N[C@@H]([C@@H](C)O)C(=O)N[C@@H](C)C(=O)N[C@@H]([C@@H](C)O)C(=O)N1)[C@@H](C)O)C(=O)N[C@@H](CC(C)C)C(=O)N1CCC[C@H]1C(=O)N1CCC[C@H]1C(=O)N[C@H](C(=O)N[C@@H](CC(N)=O)C(=O)N[C@H](C(=O)NCC(=O)N[C@@H](CO)C(=O)N[C@@H](Cc1c[nH]cn1)C(=O)N[C@H](C(=O)N[C@@H](Cc1ccc(O)cc1)C(N)=O)[C@@H](C)O)C(C)C)[C@@H](C)O
B5: N-alpha-[2-(2-{2-[2-(2-{2-[(S)-4-Carboxy-4-(19-carboxyheptadecanoylamino)butyrylamino]ethoxy}ethoxy)acetylamino]ethoxy}ethoxy)acetyl]-D-Arg-D-Arg-[Glu14,His17,A … (peptide)
peptide: {19‑carboxyheptadecanoyl-γGlu-AEEA-AEEA}-[dR][dR]KCNTATCATQRLAEFLHRSSNNFGPILPPTNVGSNTY-NH2
modifications: disulfide 4-9; reading uncertain; also: printed as N-alpha-[2-(2-{2-[2-(2-{2-[(S)-4-Carboxy-4-(19-carboxyheptadecanoylamino)butyrylamino]ethoxy}ethoxy)acetylamino]ethoxy}ethoxy)acetyl]-D-Arg-D-Arg-[Glu14,His17,Arg18]-pramlintide
B6: N-alpha-[(S)-4-Carboxy-4-(17-carboxyheptadecanoylamino)butyryl]-[Glu14,His17]-pramlintide (peptide)
peptide: {C18 diacid-γGlu}-KCNTATCATQRLAEFLHHSSNNFGPILPPTNVGSNTY-NH2
modifications: disulfide 2-7; not fully specified; printed as N-alpha-[(S)-4-Carboxy-4-(17-carboxyheptadecanoylamino)butyryl]-[Glu14,His17]-pramlintide
B7: N-alpha-[(S)-4-Carboxy-4-(19-carboxynonadecanoylamino)butyryl]-His-His-[His1,His3,Glu14,His17,His35]-pramlintide (peptide)
peptide: {C20 diacid-γGlu}-HHHCHTATCATQRLAEFLHHSSNNFGPILPPTNVGSHTY-NH2
modifications: disulfide 4-9
SMILES: CC[C@H](C)[C@H](NC(=O)[C@@H]1CCCN1C(=O)CNC(=O)[C@H](Cc1ccccc1)NC(=O)[C@H](CC(N)=O)NC(=O)[C@H](CC(N)=O)NC(=O)[C@H](CO)NC(=O)[C@H](CO)NC(=O)[C@H](Cc1c[nH]cn1)NC(=O)[C@H](Cc1c[nH]cn1)NC(=O)[C@H](CC(C)C)NC(=O)[C@H](Cc1ccccc1)NC(=O)[C@H](CCC(=O)O)NC(=O)[C@H](C)NC(=O)[C@H](CC(C)C)NC(=O)[C@H](CCCNC(=N)N)NC(=O)[C@H](CCC(N)=O)NC(=O)[C@@H](NC(=O)[C@H](C)NC(=O)[C@@H]1CSSC[C@H](NC(=O)[C@H](Cc2c[nH]cn2)NC(=O)[C@H](Cc2c[nH]cn2)NC(=O)[C@H](Cc2c[nH]cn2)NC(=O)CC[C@H](NC(=O)CCCCCCCCCCCCCCCCCCC(=O)O)C(=O)O)C(=O)N[C@@H](Cc2c[nH]cn2)C(=O)N[C@@H]([C@@H](C)O)C(=O)N[C@@H](C)C(=O)N[C@@H]([C@@H](C)O)C(=O)N1)[C@@H](C)O)C(=O)N[C@@H](CC(C)C)C(=O)N1CCC[C@H]1C(=O)N1CCC[C@H]1C(=O)N[C@H](C(=O)N[C@@H](CC(N)=O)C(=O)N[C@H](C(=O)NCC(=O)N[C@@H](CO)C(=O)N[C@@H](Cc1c[nH]cn1)C(=O)N[C@H](C(=O)N[C@@H](Cc1ccc(O)cc1)C(N)=O)[C@@H](C)O)C(C)C)[C@@H](C)O

Tests used:
Test in all cases: cell-based or functional assay
[1] = target: T1, human amylin 3(a) receptor (human calcitonin receptor + RAMP-3) (human, UniProt P30988 25-474; O60896 24-148)
T1 sequence (looked up) 1: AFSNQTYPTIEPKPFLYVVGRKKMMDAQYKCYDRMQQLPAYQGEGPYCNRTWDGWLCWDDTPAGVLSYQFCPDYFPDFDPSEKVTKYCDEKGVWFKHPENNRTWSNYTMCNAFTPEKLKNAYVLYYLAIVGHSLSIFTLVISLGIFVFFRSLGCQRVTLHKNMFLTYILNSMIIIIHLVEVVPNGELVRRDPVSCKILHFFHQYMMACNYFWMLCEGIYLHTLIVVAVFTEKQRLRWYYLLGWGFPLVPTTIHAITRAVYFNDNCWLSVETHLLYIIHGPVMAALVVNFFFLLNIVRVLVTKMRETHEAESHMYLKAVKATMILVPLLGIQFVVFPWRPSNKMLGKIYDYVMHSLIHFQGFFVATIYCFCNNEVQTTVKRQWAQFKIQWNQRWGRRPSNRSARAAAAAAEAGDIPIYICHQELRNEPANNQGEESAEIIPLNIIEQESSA
T1 sequence (looked up) 2: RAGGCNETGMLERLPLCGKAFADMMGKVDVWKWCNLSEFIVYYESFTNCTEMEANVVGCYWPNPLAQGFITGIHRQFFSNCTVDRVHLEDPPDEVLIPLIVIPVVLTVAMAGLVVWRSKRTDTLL

[2] = target: T2, rat amylin 3(a) receptor (rat calcitonin(a) receptor + rat RAMP3) (rat, UniProt P32214 25-516; Q9JJ73 23-147)
T2 sequence (looked up) 1: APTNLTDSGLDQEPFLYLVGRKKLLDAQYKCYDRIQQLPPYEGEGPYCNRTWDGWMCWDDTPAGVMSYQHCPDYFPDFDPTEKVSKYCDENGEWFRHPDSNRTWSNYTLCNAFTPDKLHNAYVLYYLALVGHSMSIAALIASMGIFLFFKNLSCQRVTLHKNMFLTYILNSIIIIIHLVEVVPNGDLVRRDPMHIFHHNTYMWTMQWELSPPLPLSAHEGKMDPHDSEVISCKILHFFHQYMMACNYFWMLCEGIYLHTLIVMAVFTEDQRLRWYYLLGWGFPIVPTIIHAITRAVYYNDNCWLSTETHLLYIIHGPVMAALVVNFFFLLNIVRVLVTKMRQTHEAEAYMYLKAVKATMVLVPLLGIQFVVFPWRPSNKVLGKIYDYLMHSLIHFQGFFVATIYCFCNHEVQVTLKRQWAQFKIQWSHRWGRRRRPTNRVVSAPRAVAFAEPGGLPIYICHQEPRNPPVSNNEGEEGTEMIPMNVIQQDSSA
T2 sequence (looked up) 2: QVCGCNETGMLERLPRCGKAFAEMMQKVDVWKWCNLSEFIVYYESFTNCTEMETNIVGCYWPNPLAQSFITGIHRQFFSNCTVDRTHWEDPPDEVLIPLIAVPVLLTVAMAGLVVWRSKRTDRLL

[3] = target: T3, rat calcitonin (a) receptor (rat, UniProt P32214 25-516)
T3 sequence (looked up): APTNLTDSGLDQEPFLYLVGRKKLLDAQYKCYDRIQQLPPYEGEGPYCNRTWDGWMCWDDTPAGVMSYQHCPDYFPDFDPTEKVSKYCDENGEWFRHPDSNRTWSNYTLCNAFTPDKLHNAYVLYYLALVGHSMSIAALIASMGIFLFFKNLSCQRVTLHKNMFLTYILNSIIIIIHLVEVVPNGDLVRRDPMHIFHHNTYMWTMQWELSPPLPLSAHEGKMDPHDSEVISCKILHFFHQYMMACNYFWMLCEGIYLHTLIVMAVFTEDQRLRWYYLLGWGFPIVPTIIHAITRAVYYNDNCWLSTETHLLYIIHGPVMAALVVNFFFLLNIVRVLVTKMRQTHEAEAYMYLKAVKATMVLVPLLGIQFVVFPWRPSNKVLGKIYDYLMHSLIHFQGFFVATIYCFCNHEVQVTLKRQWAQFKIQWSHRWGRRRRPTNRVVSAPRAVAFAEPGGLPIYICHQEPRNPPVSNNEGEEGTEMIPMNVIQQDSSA

[4] = target: T4, human calcitonin (a) receptor (human, UniProt P30988 25-474)
T4 sequence (looked up): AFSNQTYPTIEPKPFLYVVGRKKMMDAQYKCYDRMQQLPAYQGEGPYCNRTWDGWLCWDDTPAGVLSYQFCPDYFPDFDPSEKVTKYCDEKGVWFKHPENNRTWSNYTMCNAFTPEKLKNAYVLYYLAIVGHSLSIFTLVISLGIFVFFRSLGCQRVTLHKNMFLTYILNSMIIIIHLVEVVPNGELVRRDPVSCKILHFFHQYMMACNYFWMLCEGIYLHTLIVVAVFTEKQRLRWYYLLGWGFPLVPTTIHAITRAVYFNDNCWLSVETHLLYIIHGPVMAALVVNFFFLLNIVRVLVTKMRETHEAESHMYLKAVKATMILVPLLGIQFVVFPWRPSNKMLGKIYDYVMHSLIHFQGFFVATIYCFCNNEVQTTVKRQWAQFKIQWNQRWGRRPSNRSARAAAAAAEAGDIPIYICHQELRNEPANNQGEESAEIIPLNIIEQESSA

Row | Binder | Amylin receptor human EC50 [1] | Amylin receptor rat EC50 [2] | CTa receptor rat EC50 [3] | CTa receptor human EC50 [4]
1 | B1 | 149 pM | 233 pM | 4480 pM | 1110 pM
2 | B2 | 42.5 pM | 15 pM | 375 pM | 112 pM
3 | B3 | 73.9 pM | 134 pM | 2430 pM | 274 pM
4 | B4 | 164 pM | 200 pM | 1310 pM | 156 pM
5 | B5 | 83.2 pM | 132 pM | 1890 pM | 642 pM
6 | B6 | 46.9 pM | 122 pM | 433 pM | 79.2 pM
7 | B7 | 603 pM | 401 pM | 4870 pM | 543 pM
